Experiment [1] has as its target T1, Fcε3-4 (sub-fragment of IgE-Fc lacking the Cε2 domains) (human, UniProt P01854-1 209-428, limits assumed).
T1 construct: domain: Fcε3-4 (Cε3-Cε4); Production and any glycosylation site mutations not described
Kind of experiment: stopped-flow tryptophan fluorescence, Fab in excess over Fcε3-4, two-step binding; column kon. Here is the method: (§1) Experiments were carried out using a Chirascan Plus (Applied Photophysics Ltd) with a stopped-flow attachment at 20° C. in PBS buffer pH 7.4 and with pseudo-first order protein concentrations varied as required. Fluorescence was excited at 280 nm (1 nm slit width) and emitted fluorescence above 305 nm detected with a long-band pass. 6-10 runs were averaged for each experiment. Data were collected and analyzed using supplied software according to the manufacturer's instructions. Experimental transients were fitted either to single-exponential (Eq.1; [IgE-Fc] or [Fcε3-4]>[Fab] and only Fab¹ binding observable) or double-exponential (Eq.2; [Fab]>[IgE-Fc] or [Fcε3-4] and binding of both Fab¹ and Fab² observable) equations: […]
(§2) where F is the observed fluorescence, ΔFₙ is the fluorescence amplitude change for the nth transient, kobsn is the pseudo-first order rate constant for the nth step and Fₑ is the end-point fluorescence. The bimolecular association rate constants for Fab¹ (k₊₁) and Fab² (k₊₂) binding were determined by fitting the linear concentration dependences of kobs1 and kobs2 to Eq. 3: […]

Experiment [2] has as its target T1, Fcε3-4 (sub-fragment of IgE-Fc lacking …). Kind of experiment: stopped-flow tryptophan fluorescence, Fab in excess over Fcε3-4, two-step binding; column kon2. Here is the method:
as §1, §2

The target is the same in experiment [3]. Kind of experiment: ITC, Fab titrated into Fcε3-4, sequential binding model; second Fab. Here is the method: (§3) Experiments were carried out using a Microcal iTC200 calorimeter (GE Healthcare) at 20° C. in PBS buffer pH 7.4. Depending on the final ratio required, 25-30 μM of protein was used in the calorimeter cell and 10-20 fold higher concentrations were used in the syringe. The number and volume of injections were varied as appropriate. Heats of dilution were subtracted from the data before analysis. […] Analyses were carried out using MicroCal Origin, using a 1:1 binding model when IgE-Fc or Fcε3-4 was titrated into Fab, or a sequential 1:1 binding model when Fab was titrated into IgE-Fc or Fcε3-4.
(§4) One way to establish experimentally that IgE-Fc adopts an […] as it flips between two bent conformations, is to determine the number of Fab binding sites that are available for binding: if rigidly and exclusively bent, only one site will initially be accessible, but if it can flip, then two sites are accessible. We therefore studied the interaction between Fab and IgE-Fc by isothermal titration calorimetry (ITC) and compared with the binding to Fcε3-4 which, lacking the Cε2 domains, always has two accessible sites.
A general note: ITC needs no label: the signal is the heat of the interaction.

Experiment [4] has the same target. Kind of experiment: ITC, Fcε3-4 titrated into Fab, 1:1 binding model. Here is the method: as §3, §4
Experiment [5] has the same target. Nature of the experiment: stopped-flow tryptophan fluorescence, Fcε3-4 in excess over Fab (1:1 complex). Here is the method:
as §1, §2

Experiment [6] has the same target. Nature of the experiment: stopped-flow tryptophan fluorescence, Fab in excess over Fcε3-4, two-step binding; column koff. Here is the method:
as §1, §2

For experiment [7] the target is unchanged. Nature of the experiment: ITC, Fab titrated into Fcε3-4, sequential binding model; first Fab. Here is the method: as §3, §4

T1 sequence (P01854 other isoform, or with tags, fused parts or gaps limits assumed): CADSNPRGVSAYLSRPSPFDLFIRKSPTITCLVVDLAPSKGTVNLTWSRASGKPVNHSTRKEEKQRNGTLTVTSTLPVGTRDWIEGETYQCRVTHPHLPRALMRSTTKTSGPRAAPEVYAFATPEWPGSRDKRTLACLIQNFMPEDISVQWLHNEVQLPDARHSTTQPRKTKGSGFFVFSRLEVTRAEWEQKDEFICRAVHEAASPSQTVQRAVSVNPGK

B1: Fab7 (anti-human IgE Fab, human IgG1 Fab format) (Fab, V domains shown)
VH: QVQLQQSGPGLVKPSQTLSLTCGISGDSVSSNSAAWNWLRQSPSRGLEWLGRTYYRSKWYNDYAVSMKSRITINPDTSRNQFSLQLNSVTPEDTAVYYCARDGEISYDYYYYGMDVWGRGTLVTVSS
VL: QSVLTQPPSASGTPGQRVTISCSGSSSNIGNNGVNWYQQVPGKPPKLLIYYDDLLPSGVSDRFSGSKSGTSASLAISGLQSEDEADYYCEAWDDSLDGVVFGGGTKLTVLG
notes: Expressed transiently in CHO cells; also called anti-IgE Fab; Fab^1
By kon is commonly meant a measure of how fast the partners come together. Higher therefore signals faster complex formation. In general, Kd refers to the constant that tells how readily two partners part at equilibrium. Read a low Kd as higher affinity. Broadly, the koff is the first-order rate constant of dissociation. A low value points to a long-lived complex. As to B1, the values for the kon in experiment [1], in experiment [2] and in experiment [5] were 1e+06 M⁻¹ s⁻¹, 370000 M⁻¹ s⁻¹ and 1e+06 M⁻¹ s⁻¹, respectively. Besides, the Kd in experiment [3] amounted to 980 nM; in experiment [4], 90 nM; in experiment [7], 34 nM. In experiment [6], this molecule returned a koff of 0.95 s⁻¹.

(Values after patent US20150219635A1 (UCB, published 2015).)
